Assay results taken from PMC8613188, “Structural insights into bifunctional thaumarchaeal crotonyl-CoA hydratase and 3-hydroxypropionyl-CoA dehydratase from Nitrosopumilus maritimus” (Scientific Reports, 2021).

Biological target: the molecule itself
Assay: crystal structure; apo form, 2.15 Å, space group P32, 6 monomers in the asymmetric unit; crystals from 0.2 M MgCl2, 0.1 M sodium citrate tribasic dihydrate pH 5, 10% w/v PEG, BME added; data at 100 K

B1: Nmar_1308 protein, bifunctional crotonyl-CoA hydratase (CCAH) and 3-hydroxypropionyl-CoA dehydratase (3HPD) from Nitrosopumilus maritimus SCM1 (enzyme)
chain: MSLVTTSTSDGICTVKINRPDKLNAMNTDVAKELIKTFEELNHNDDVKVIILTGEGEKAFSAGADIEYMSKISADESVEYAKTGQLVTATVELVKQPTIAAVNGFALGGGCELAMSCDIRIAADTAKLGQPEVTIGVPPGWGGTQRLMRIVGIAKAKELVYTGKMIKAEEAKEIGLVNHVVPLASLQEEALKMAQQIAGNSTMGVQMSKVAINKGRNADLDTGLGLEILAWRNCFTHPDRQERMTAFVNKSKK
notes: Protein encoded by Nmar_1308 of Nitrosopumilus maritimus SCM1; codon-optimized gene construct from Genscript in pET28a (NdeI/BamHI); 229-237 residues modeled per chain in PDB 7EUM; Homohexamer (dimer of trimers) in the crystal; source: E. coli BL21(Rosetta-2), purified (Ni-NTA, thrombin cleavage, reverse Ni-NTA, Superdex 200); not shown: His6, N-terminal, cleaved
  stoichiometry N: 6
